Assay results published in IntAct's records for PubMed 19494828.

B1: Caspase-9 (Homo sapiens), P55211 (parent)
chain: MDEADRRLLRRCRLRLVEELQVDQLWDALLSRELFRPHMIEDIQRAGSGSRRDQARQLIIDLETRGSQALPLFISCLEDTGQDMLASFLRTNRQAAKLSKPTLENLTPVVLRPEIRKPEVLRPETPRPVDIGSGGFGDVGALESLRGNADLAYILSMEPCGHCLIINNVNFCRESGLRTRTGSNIDCEKLRRRFSSLHFMVEVKGDLTAKKMVLALLELAQQDHGALDCCVVVILSHGCQASHLQFPGAVYGTDGCPVSVEKIVNIFNGTSCPSLGGKPKLFFIQACGGEQKDHGFEVASTSPEDESPGSNPEPDATPFQEGLRTFDQLDAISSLPTPSDIFVSYSTFPGFVSWRDPKSGSWYVETLDDIFEQWAHSEDLQSLLLRVANAVSVKGIYKQMPGCFNFLRKKLFFKTS

Variants of: B1
Settings: with apaf_human APAF1, O14727
apaf_human APAF1, O14727, sequence (O14727 whole entry): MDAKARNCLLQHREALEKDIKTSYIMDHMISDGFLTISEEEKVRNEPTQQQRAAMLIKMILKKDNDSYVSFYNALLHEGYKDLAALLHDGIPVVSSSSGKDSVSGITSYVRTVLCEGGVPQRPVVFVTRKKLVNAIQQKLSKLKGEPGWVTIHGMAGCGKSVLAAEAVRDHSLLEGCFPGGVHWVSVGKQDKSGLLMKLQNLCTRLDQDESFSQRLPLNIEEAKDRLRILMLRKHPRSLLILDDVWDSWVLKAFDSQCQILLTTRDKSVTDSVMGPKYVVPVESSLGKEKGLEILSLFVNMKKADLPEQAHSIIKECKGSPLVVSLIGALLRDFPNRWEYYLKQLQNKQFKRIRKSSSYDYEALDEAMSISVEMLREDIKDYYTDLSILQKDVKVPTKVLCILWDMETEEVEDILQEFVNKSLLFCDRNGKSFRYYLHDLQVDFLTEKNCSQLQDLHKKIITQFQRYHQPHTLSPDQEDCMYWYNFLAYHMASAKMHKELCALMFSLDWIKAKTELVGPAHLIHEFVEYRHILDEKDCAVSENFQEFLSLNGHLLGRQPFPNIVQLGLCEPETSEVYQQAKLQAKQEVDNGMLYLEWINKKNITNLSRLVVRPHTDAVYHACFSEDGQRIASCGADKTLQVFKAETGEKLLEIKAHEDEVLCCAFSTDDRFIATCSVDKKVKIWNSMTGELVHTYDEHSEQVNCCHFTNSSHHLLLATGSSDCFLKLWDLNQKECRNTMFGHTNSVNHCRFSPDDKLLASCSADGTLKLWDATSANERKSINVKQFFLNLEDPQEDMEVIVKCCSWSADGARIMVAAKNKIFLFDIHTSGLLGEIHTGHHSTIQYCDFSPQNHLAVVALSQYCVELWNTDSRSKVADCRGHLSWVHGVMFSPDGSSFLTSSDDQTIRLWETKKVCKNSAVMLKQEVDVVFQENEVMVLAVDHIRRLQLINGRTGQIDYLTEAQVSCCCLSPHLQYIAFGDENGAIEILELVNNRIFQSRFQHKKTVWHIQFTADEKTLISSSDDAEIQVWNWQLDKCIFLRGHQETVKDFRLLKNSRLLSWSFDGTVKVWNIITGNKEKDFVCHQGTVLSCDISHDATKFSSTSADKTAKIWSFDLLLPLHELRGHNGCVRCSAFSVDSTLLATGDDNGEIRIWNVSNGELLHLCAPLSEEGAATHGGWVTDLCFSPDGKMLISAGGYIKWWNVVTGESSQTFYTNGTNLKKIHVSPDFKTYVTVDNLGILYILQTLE

effect of a mutation on the interaction | Variant
disrupting interaction | MDEADRRLLRRCRLRLVEELQVDQLWDALLSRELFRPHMIEDIQRAGSGSRRDQAAQLIIDLETRGSQALPLFISCLEDTGQDMLASFLRTNRQAAKLSKPTLENLTPVVLRPEIRKPEVLRPETPRPVDIGSGGFGDVGALESLRGNADLAYILSMEPCGHCLIINNVNFCRESGLRTRTGSNIDCEKLRRRFSSLHFMVEVKGDLTAKKMVLALLELAQQDHGALDCCVVVILSHGCQASHLQFPGAVYGTDGCPVSVEKIVNIFNGTSCPSLGGKPKLFFIQACGGEQKDHGFEVASTSPEDESPGSNPEPDATPFQEGLRTFDQLDAISSLPTPSDIFVSYSTFPGFVSWRDPKSGSWYVETLDDIFEQWAHSEDLQSLLLRVANAVSVKGIYKQMPGCFNFLRKKLFFKTS [R56A]
